Results as given in patent US20020143164A1, “Ras activator nucleic acid molecules, polypeptides and methods of use” (priority 1999, published 2002).

Legend:
[1] = test system: Ras; test: Ras activation assay in living cells, GRF4 and deletion mutants expressed in HEK-293T cells; type: cell-based, human; conditions: HEK-293T cells treated with 8-Br-cAMP
Procedure: HEK-293T cells were transfected with vector alone, GRF4 (WT), GRF4 lacking its cNMP-BD (ΔcNMP-BD) or its CDC25 domain (ΔCDC25), and then treated (or not) with 8-Br-cAMP. Cell lysates were then incubated with GST-Raf1-RBD to precipitate active Ras, and immunobloited with anti Ras antibodies as above (upper panel). Lower panels are controls for total endogenous Ras and transfected GRF4 or its mutants.
Flag, HA or myc tags was added to the N-terminus of full length GRF4 using PCR, and subcloned into the mammalian expression vector pCMV5 (Invitrogen). Mutants GRF4 with deletion of the CDC25 domain (residue 711-1007, GRF4DCDC25 or DCDC25 for short), the cNMP-BD (residue 134-254, DcNMP-BD), the PLPF motif in the PDZ domain (residue 396-399, -PLPF), or bearing mutations in the PDZ-binding motif (SAV to AAA), were generated using PCR. The GST-GRF4-cNMP-BD (residue 101-303) and GST-Carboxy-terminus (residue 1348-1499) were PCR-generated and cloned into pGEX-2T ( Pharmacia). The latter construct was used to generate a fusion protein (GST-GRF4C terminus) which was used to immunize rabbits for the generation of polyclonal anti GRF4 antibodies.
HEK-293T cells were transfected as above, serum starved overnight and then subjected to various treatments, as described in the text. […] GTP in the lysates was determined using activation specific probes as described. Briefly, to determined the levels of active Ras (Ras-GTP) in cell, sepharose-bound GST fusion protein of the Ras-binding domain (RBD) of Raf-1 (GST-Raf1-RBD; Upstate Biotechnology Inc.) was used to precipitate Ras-GTP from cell lysates, and the amount of Ras-GTP determined by immunoblotting with anti Ras antibodies (Quality Biotech). Similarly, to determine the level of Rap1-GTP in cell lysates, sepharose-bound GST fusion proteins of the Rap1-binding domain of RaIGDS (GST-RaIGDS-RBD) were used to precipitate Rap1-GTP, which was then detected on a Western blot using anti-Rap1 antibodies (Transduction Lab).

[2] = target: T1, GRF4 (Homo sapiens, UniProt Q9Y4G8, DEL134-254); test: Activation of Ras and MAPK by cNMP analogues in GRF4-transfected HEK-293T cells; type: cell-based; conditions: HEK-293T cells
T1 construct: Flag, HA or myc tags was added to the N-terminus of full length GRF4 using PCR; expressed in transfected cells; host or cells: HEK-293T
T1 sequence (Q9Y4G8 with tags, fused parts or gaps DEL134-254): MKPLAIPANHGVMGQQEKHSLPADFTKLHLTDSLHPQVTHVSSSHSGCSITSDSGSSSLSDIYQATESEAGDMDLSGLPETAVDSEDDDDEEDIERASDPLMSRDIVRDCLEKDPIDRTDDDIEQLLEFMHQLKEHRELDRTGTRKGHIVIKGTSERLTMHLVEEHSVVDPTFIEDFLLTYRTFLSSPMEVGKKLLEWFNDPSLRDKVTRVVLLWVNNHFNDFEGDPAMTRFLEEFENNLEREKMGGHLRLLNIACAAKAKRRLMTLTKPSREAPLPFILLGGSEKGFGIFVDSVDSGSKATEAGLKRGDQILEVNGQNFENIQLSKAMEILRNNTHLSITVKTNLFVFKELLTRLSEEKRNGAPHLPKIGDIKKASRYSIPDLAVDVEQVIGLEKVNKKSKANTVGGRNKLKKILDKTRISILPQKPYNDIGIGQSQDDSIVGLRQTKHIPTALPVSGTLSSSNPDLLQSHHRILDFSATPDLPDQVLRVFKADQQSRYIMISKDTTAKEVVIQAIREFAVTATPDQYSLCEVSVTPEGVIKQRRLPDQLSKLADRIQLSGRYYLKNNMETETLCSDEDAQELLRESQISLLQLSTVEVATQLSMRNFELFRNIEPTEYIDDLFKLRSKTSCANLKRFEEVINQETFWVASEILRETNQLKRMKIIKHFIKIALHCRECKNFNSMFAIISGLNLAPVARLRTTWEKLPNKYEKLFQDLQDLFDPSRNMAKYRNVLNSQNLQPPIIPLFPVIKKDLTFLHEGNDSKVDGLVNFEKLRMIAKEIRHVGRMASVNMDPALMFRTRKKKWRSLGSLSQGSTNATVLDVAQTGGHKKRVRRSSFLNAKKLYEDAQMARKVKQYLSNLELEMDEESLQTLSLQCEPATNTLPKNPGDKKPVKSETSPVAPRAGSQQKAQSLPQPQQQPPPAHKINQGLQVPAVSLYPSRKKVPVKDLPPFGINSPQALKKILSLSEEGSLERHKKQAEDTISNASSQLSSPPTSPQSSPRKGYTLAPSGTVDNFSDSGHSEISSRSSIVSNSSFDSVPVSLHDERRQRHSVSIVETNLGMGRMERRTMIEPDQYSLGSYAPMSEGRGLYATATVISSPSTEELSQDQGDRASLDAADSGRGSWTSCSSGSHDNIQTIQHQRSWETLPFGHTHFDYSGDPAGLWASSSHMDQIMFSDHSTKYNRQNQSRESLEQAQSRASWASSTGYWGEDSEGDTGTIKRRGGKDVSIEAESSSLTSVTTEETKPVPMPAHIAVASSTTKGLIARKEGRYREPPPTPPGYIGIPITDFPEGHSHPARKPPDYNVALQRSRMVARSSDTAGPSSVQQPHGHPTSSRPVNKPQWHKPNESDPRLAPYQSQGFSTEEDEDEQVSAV
Procedure: The small GTPase Ras controls the MAPK pathway and exerts its effects on cellular processes primarily through this pathway. MAPK is a downstream kinase of Ras and thus, Ras activation leads to MAPK activation (FIG. 6A). Therefore, we show the GRF4 effects on MAPK activation using assays in which levels of active MAPK in cells is determined using antibodies recognizing phosphorylated (active) MAPK.

Activation of Ras and MAPK by the expressed mutant [2]: constitutively
B1: ΔcNMP-BD: Mutant GRF4 with deletion of the cNMP-BD (residue 134-254) (protein)
chain: T1 sequence (Q9Y4G8 with tags, fused parts or gaps DEL134-254)
8-Br-cAMP-mediated activation of Ras via the construct, compared with wt-GRF4 [1]: almost abolished
